This passage reports Response (nm), EC50 (read off the curve) and EC50 results from patent US20260167703A1.

A word on the EC50 (read off the curve): it is the midpoint of the concentration-response curve. The term EC50 denotes the concentration at which the effect is half-maximal.

Assay [1] has as its target DENV-4 E protein Domain III (Dengue virus serotype 4, strain Indonesia/1036/1976). The experiment in a line: BLI, mAb on AR2G biosensor, 20 ug/mL Domain III, 1200 sec. On the technique in general: In BLI a coated tip is dipped into the sample, and binding shifts an interference pattern.
Assay [2] has as its target DENV-2 E protein Domain III (Dengue virus serotype 2, strain Thailand/16681/1984). Described as above.
Assay [3] deals with Dengue Virus Serotype 2 envelope protein (Dengue virus serotype 2, strain Thailand/16681/84). The experiment in a line: Luminex bead assay (antigen on MagPlex beads, MFI).
Assay [4] addresses DENV-2 VLP (Dengue virus serotype 2, strain Thailand/16681/84). In words: Luminex, VLP-coupled beads.

As to 4G2 (antibody), the Response (nm) in assay [1] came to 0.056 nm; in assay [2], 0.0174 nm.

In assay [3], 777-2 (DV2-3H5) (antibody) gave an EC50 (read off the curve) of 0.06 µg/mL. In assay [2], the Response (nm) is 0.303 nm. This substance returned an EC50 in assay [4] of 0.0749 µg/mL.

Consider 3H5 (antibody), for which the Response (nm) in assay [2] turned out to be 0.488 nm.
